Experimental data published in PMC4950921.

Legend:
[1] = molecular target: EphA2 L223R/L254R/V255R mutant (UniProt P29317)
[2] = molecular target: EphA2 L223R/L254R/V255R mutant (UniProt P29317); remark: listed apart in the source

Sequence of UniProt P29317 (P29317 24-976 L223R/L254R/V255R): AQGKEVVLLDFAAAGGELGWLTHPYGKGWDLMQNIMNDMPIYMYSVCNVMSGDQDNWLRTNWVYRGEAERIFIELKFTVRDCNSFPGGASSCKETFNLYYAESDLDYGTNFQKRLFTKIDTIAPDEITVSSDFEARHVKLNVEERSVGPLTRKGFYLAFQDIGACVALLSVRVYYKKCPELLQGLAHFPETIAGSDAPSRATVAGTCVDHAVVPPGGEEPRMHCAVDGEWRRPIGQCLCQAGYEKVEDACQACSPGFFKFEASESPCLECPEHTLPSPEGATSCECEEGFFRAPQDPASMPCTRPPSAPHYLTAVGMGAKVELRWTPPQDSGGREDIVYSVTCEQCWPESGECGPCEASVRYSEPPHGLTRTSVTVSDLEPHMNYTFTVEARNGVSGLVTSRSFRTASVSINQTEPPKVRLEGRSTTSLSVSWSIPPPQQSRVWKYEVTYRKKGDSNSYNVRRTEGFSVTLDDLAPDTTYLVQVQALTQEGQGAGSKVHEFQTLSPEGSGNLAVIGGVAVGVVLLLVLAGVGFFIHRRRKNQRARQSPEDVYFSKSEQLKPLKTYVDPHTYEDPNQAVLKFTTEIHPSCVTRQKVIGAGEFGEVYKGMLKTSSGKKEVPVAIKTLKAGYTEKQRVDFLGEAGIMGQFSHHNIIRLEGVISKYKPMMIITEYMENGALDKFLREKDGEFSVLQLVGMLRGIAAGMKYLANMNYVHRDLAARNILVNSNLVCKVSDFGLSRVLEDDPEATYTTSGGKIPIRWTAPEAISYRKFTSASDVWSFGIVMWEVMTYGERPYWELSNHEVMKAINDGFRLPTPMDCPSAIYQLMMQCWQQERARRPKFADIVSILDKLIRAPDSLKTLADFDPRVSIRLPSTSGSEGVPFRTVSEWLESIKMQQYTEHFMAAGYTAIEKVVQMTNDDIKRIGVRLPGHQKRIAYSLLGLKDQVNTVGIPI

decrease of EphA2 Ser897 phosphorylation, Western blot, HEK293T, 6 uM YSA [1]: 35%
suppression of migration of transfected HEK293T cells, transwell assay, 6 uM YSA [2]: 25%
Binder: YSAYPDSVPMMSGSGSK [YSA peptide with the GSGSK linker]
